First the molecules themselves.
B1: Compound No. 6 in the Table, BzlSO2-Nle-Ala-His-DPhe-Lys-Trp-NH2 (peptide)
peptide: Benzenesulfonyl-[Nle]AH[dF]KW-NH2
SMILES: CCCC[C@H](NS(=O)(=O)c1ccccc1)C(=O)N[C@@H](C)C(=O)N[C@@H](Cc1c[nH]cn1)C(=O)N[C@H](Cc1ccccc1)C(=O)N[C@@H](CCCCN)C(=O)N[C@@H](Cc1c[nH]c2ccccc12)C(N)=O
B2: Compound No. 2 in the Table, Ac-Nle-Ala-His-DPhe-Lys-Trp-NH2 (peptide)
peptide: Ac-[Nle]AH[dF]KW-NH2
SMILES: CCCC[C@H](NC(C)=O)C(=O)N[C@@H](C)C(=O)N[C@@H](Cc1c[nH]cn1)C(=O)N[C@H](Cc1ccccc1)C(=O)N[C@@H](CCCCN)C(=O)N[C@@H](Cc1c[nH]c2ccccc12)C(N)=O

[ ]: non-standard residue; d: D form. The star is where a group is joined. dPhe(4-NO2) = N[C@H](Cc1ccc([N+](=O)[O-])cc1)C(=O)O; Benzenesulfonyl = O=S(=O)(c1ccccc1)*; d(hPhe) = N[C@H](CCc1ccccc1)C(=O)O; d2Thi = N[C@H](Cc1cccs1)C(=O)O; NMeNle = CCCC[C@H](NC)C(=O)O; PyrProp = pyridinepropionyl; Tos = Cc1ccc(S(=O)(=O)*)cc1; Nle = CCCC[C@H](N)C(=O)O

The target in this test is melanocortin-1 receptor (MC-1r) on murine melanocytes (line S91 Cloudman) (murine) (UniProt Q01727). In words: cell-based or functional assay.
melanocortin-1 receptor (MC-1r) on murine melanocytes (line S91 Cloudman) (murine), sequence (Q01727 whole entry): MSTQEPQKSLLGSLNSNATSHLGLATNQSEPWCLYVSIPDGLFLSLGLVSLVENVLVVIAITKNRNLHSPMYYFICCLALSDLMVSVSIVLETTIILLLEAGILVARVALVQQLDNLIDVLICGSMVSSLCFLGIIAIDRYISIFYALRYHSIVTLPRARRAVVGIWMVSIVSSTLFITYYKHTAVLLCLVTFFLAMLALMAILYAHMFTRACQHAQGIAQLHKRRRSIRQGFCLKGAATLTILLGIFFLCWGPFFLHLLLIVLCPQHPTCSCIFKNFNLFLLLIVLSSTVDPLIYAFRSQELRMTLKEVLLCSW
As to Ac-[NMeNle]AH[d(hPhe)]RW-NH2 [Compound No. 13 in the Table, Ac-MeNle-Ala-His-DHomoPhe-Arg-Trp-NH2], the cAMP production (as % of α-MSH) is 55 % of α-MSH.

Regarding Ac-[Nle]AH[dF]RW-NH2 [Compound No. 1 in the Table, Ac-Nle-Ala-His-DPhe-Arg-Trp-NH2], the cAMP production (as % of α-MSH) was 80 % of α-MSH.

PyrProp-[Nle]AH[dPhe(4-NO2)]RW-NH2 [Compound No. 11 in the Table, PyrProp-Nle-Ala-His-DpNO2Phe-Arg-Trp-NH2]: the cAMP production (as % of α-MSH) was 150 % of α-MSH.

On to Ac-[Nle]AH[d2Thi]RW-NH2 [Compound No. 3 in the Table, Ac-Nle-Ala-His-DThi-Arg-Trp-NH2], for which the cAMP production (as % of α-MSH) is 10 % of α-MSH.

In the case of Benzenesulfonyl-[Nle]AH[dF]RW-NH2 [Compound No. 4 in the Table, BzlSO2-Nle-Ala-His-DPhe-Arg-Trp-NH2], the cAMP production (as % of α-MSH) is 70 % of α-MSH.

Tos-[Nle]AH[dF]RW-NH2 [Compound No. 5 in the Table, Tos-Nle-Ala-His-DPhe-Arg-Trp-NH2]: the cAMP production (as % of α-MSH) was 100 % of α-MSH.

For the molecule B1, the cAMP production (as % of α-MSH) is 55 % of α-MSH.

Regarding B2, the cAMP production (as % of α-MSH) is 40 % of α-MSH.

Turning to Ac-[Nle]AH[d(hPhe)]RW-NH2 [Compound No. 14 in the Table, Ac-Nle-Ala-His-DHomoPhe-Arg-Trp-NH2], the cAMP production (as % of α-MSH) was 45 % of α-MSH.
